Substitutions are numbered along the chain they refer to. No end group written: not given here.
B1: human NgR1 alanine mutant 67, 68, 95, 97 (receptor)
chain: CPGACVCYNEPKVTTSCPQQGLQAVPVGIPAASQRIFLHGAAISHVPAASFRACRNLTILWLHSNVLAAIAAAAFTGLALLEQLDLSDNAQLRSVDPATFHGLGRLHTLHLDRCGLQELGPGLFRGLAALQYLYLQDNALQALPDDTFRDLGNLTHLFLHGNRISSVPERAFRGLHSLDRLLLHQNRVAHVHPHAFRDLGRLMTLYLFANNLSALPTEALAPLRALQYLRLNDNPWVCDCRARPLWAWLQKFRGSSSEVPCSLPQRLAGRDLKRLAANDLQGCAVATGPYHPIWTGRATDEEPLGLPKCCQPDAADKASVLEPGRPASAGNALKGRVPPGDSPPGNGSGPRHINDSPFGTLPGSAEPPLTAVRPEGSEPPGFPTSGPRRRPGCSRKNRTRSHCRLGQAGSGGGGTGDSEGSGALPSLTCSLTPLGLALVLWTVLGPC
B2: human NgR1 alanine mutant 87, 89, 133, 136 (receptor)
chain: B1 chain with A41N, A42R, W61A, H63A, A69R, A71D, H107A, H110A
B3: human NgR1 alanine mutant 182, 186, 158, 160 (receptor)
chain: B1 chain with A41N, A42R, A69R, A71D, Y132A, Y134A, H156A, H160A
B4: human NgR1 alanine mutant 111, 113, 114, 138 (receptor)
chain: B1 chain with A41N, A42R, A69R, A71D, D85A, S87A, D88A, D112A
B5: AP-fused Amino-Nogo fragment a.a. 971-1018 (ligand)
chain: KVLVKEAEKKLPSDTEKEDRSPSAIFSAELSKTSVVDLLYWRDIKKTG
modifications: also: alkaline phosphatase (AP) fusion
notes: not shown: alkaline phosphatase (AP), vector pcAP6
B6: AP-Amino-Nogo-A-24 (a.a. 995-1018) (ligand)
chain: IFSAELSKTSVVDLLYWRDIKKTG
modifications: also: alkaline phosphatase (AP) fusion
notes: also called Amino-Nogo-24; not shown: alkaline phosphatase (AP), vector pcAP6
B7: AP-fused Amino-Nogo fragment a.a. 995-1015 (ligand)
chain: IFSAELSKTSVVDLLYWRDIK
modifications: also: alkaline phosphatase (AP) fusion
notes: as for B5
B8: AP-fused Amino-Nogo fragment a.a. 995-1014 (ligand)
chain: IFSAELSKTSVVDLLYWRDI
modifications: also: alkaline phosphatase (AP) fusion
notes: as for B5
B9: AP-fused Amino-Nogo-A-19 (a.a. 995-1013) (ligand)
chain: IFSAELSKTSVVDLLYWRD
modifications: also: alkaline phosphatase (AP) fusion
notes: also called Ng19; not shown: alkaline phosphatase (AP), vector pcAP6
B10: AP-fused Amino-Nogo fragment a.a. 996-1018 (ligand)
chain: FSAELSKTSVVDLLYWRDIKKTG
modifications: also: alkaline phosphatase (AP) fusion
notes: as for B5

biological target: T1, AP-Nogo-66 (UniProt Q9NQC3 1055-1120); assay: AP-ligand binding, COS-7; settings: not given
T1 construct: domain: Nogo-66; construct described elsewhere (Fournier 2001); also called AP-Ng66; Ng66; not shown: alkaline phosphatase (AP); construct described elsewhere
T1 sequence (looked up): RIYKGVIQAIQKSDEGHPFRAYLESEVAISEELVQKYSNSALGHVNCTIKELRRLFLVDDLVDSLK

**Q.** Does B1 bind?
**A.** Result: no binding

**Q.** Does B2 bind?
**A.** Result: no binding

**Q.** Does B3 bind?
**A.** Result: no binding

**Q.** Does B4 bind?
**A.** Result: no binding

biological target: T2, AP fusion protein with the B4C fragment of Amino-Nogo-A fused directly to Nogo-66 (human, UniProt Q9NQC3 1055-1120); assay: AP-ligand binding, COS-7; settings: not given
T2 construct: domain: Nogo-66; also called AP-B4C66; AP-B4C-66; not shown: alkaline phosphatase (AP), vector pcAP6
T2 sequence: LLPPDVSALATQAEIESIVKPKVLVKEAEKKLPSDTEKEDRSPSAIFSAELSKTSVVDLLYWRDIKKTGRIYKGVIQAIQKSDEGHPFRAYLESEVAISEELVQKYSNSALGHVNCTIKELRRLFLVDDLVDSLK

**Q.** Does B1 bind?
**A.** Result: no binding

**Q.** Does B2 bind?
**A.** Result: no binding

**Q.** Does B3 bind?
**A.** Result: no binding

**Q.** Does B4 bind?
**A.** Result: no binding

biological target: T3, AP-fused Amino-Nogo fragment B4C (a.a. 950-1018) (human, UniProt Q9NQC3 950-1018); assay: AP-ligand binding, COS-7; settings: not given
T3 construct: also called AmNg B4C; AP-B4C; not shown: alkaline phosphatase (AP), vector pcAP6
T3 sequence: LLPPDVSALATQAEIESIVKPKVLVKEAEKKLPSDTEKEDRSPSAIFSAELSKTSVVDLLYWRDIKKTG

**Q.** Does B1 bind?
**A.** Result: no binding

**Q.** Does B2 bind?
**A.** Result: no binding

**Q.** Does B3 bind?
**A.** Result: no binding

**Q.** Does B4 bind?
**A.** Result: no binding

system: NgR ligands; assay: Binding of alanine substituted NgR mutants to NgR ligands, summary categories; settings: AP-Nogo66, AP-B4C, AP-B4C66, AP-Lingo-1, AP-OMgp and AP-MAG; compared to wild type NgR
How it was run: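 Human NgR1 template; 74 mutants with 1-8 solvent-exposed charged surface residues (within 5 Å) Ala-substituted, plus glycosylation-site mutants and D259N polymorphism. Mutants tested for binding of AP-tagged Nogo66, Amino-Nogo-B4C, B4C66, MAG, OMgp and Lingo-1; each classed as losing all, keeping all, or selective ligand binding.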

**Q.** Which “ligand binding category of NgR mutant (Table II)” value (from here on “ligand binding category”) does the source give for B1 here?
**A.** The value was “No binding”.

**Q.** For B2, which “ligand binding category” value is on record?
**A.** The value was “No binding”.

**Q.** B3 was tested. Which “ligand binding category” value did it give?
**A.** The value was “No binding”.

**Q.** Which “ligand binding category” value does the source give for B4 here?
**A.** Its value is “No binding”.

Biological target: T4, NgR expressed on COS-7 cells (species not stated)
T4 chain: B1 chain with A41N, A42R, A69R, A71D
Assay: AP fusion on NgR-expressing COS-7 cells
Settings: not given
Excerpt: Several alkaline phosphatase (AP) fusion proteins containing various Nogo-A segments derived from regions between the amino terminus and the first hydrophobic segment were examined to identify the mechanism of Amino-Nogo-A action. To generate additional AP fusion proteins, human amino Nogo fragments were amplified and ligated to the pcAP6 vector digested with restriction enzymes EcoRI and XhoI as described (Fournier, A. E., et al., Nature 409:341-346 (2001)). Plasmids were then transfected into HEK293T cells and conditioned media were collected after 7 days. None of these fragments bind with high affinity to non-transfected COS-7 cells. […] This binding is saturable with a Kd indistinguishable from that for AP-Nogo-66 association with NgR (Table I). To better define the region responsible for Amino-Nogo interaction with NgR, a range of truncation mutants of Amino-Nogo were examined as AP fusion proteins.
Binding Kds for AP fused Amino-Nogo fragments were measured by applying conditioned media containing AP fusion protein to NgR expressing COS-7 cells. Bound AP was stained and measured.

**Q.** Which Kd does the source give for B5 here?
**A.** Its Kd is 2.69 nM.

**Q.** For B6, which Kd is on record?
**A.** Its Kd is 2.43 nM.

**Q.** For B7, which Kd is on record?
**A.** Its Kd is 4.55 nM.

**Q.** For B8, which Kd is on record?
**A.** The Kd was 3.19 nM.

**Q.** For B9, which Kd is on record?
**A.** Its Kd is 2.48 nM.

**Q.** For B10, which Kd is on record?
**A.** Its Kd is 26.6 nM.
